From patent US20210388112A1

Target: T1, peptide containing GA-pyridine (Biotin-Gly-Ala-Gly-(GA-pyridine)-Gly-Ala-CONH2)
T1 chain: GAGXGA
Assay: SPR (Biacore T200), peptide immobilised on sensor chip SA, 25 C

B1: cyclic Y9-scFv cyclized by sortase (scFv)
scFv: GGGSHMAQVKLQQSGPSLVKPSQTLSLTCSVTGDSITSGYWNWIRKFPGNKFEYLGYISYSGRTYYNPSLKSRISITRDTSKNQYYLQLNSVTTEDTATYYCSRPYYRYDYAIDYWGQGTTVTVSSGGGGSGGGGSGGGGSDIELTQSPAIMSASLGEQVTMTCTASSSVSSSYLHWYQQKPGSSPKLWIYSTSNLASGVPARFSSSGSGTSYSLTISRMEAEDAATYYCQQSWKAPYTFGGGTKLEIKRAAAGTHHHHHHLPET
modifications: not checked
Kd: 16.1 nM
